Test results from publication PMC8805405 (Journal of Nanobiotechnology, 2022).
Changes are numbered by the printed parent chain. Read-outs that look alike come from different tables or passages of the source. Blank lines part the entries; values can stand above or below the binder they belong to.

Molecular target: T1, recombinant human TNF-α (Homo sapiens, UniProt P01375)
T1 construct: tumor necrosis factor alpha, human, recombinant; also called tumor necrosis factor (TNF)-α; source: bought: R&D Systems
T1 sequence (P01375 77-233): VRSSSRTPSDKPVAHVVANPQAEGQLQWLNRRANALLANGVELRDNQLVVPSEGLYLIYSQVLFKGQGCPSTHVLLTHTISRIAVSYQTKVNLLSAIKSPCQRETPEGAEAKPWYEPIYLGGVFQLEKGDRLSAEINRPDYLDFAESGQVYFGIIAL
Experiment: BLI; BLItz; human TNF-α (5 μg/mL in 10 mM acetate, pH 5) immobilised on AR2G biosensors by EDC/s-NHS; various concentrations of antibody at room temperature; global fit, BLItz Pro 1.2

Kd: 17.7 nM
koff: 0.000475 s⁻¹
kon: 26800 M⁻¹ s⁻¹
B1: humanized anti-TNF-α mAb C5 (C + b) (antibody, V domains shown)
VH: EVQLVESGGGLVKPGGSLRLSCAASGFTFSNHWMNWVRQAPGKGLEWVGEIRSKSINSATHYAAPVKGRFTISRDDSKNTLYLQMNSLKTEDTAVYYCTRNYYGSTYDYWGQGTTVTVSS
VL: EIVLTQSPDFQSVTPKEKVTITCRASQSIGSSLHWYQQKPDQSPKLLIKYASQSFSGVPSRFSGSGSGTDFTLTINSLEAEDAATYYCHQSSSWPFTFGQGTKLEIK

Kd (both partners purified): 5.5 nM
koff (both partners purified): 0.00015 s⁻¹
kon (both partners purified): 27200 M⁻¹ s⁻¹
B2: humanized anti-TNF-α mAb C3 (B + b) (antibody, V domains shown)
VH: B1 VH
VL: B1 VL with S28F, S92H
notes: VH grafting condition b (Remicade CDRs on human germline IGHV3-15*07-JH5); as the heavy chain of m4; heavy-chain constant region; VL grafting condition B (Remicade CDRs on human germline IGKV6-21*01-JK2); light-chain constant region; source: Expi293, transfected, purified (protein A sepharose)

Kd (both partners purified): 0.935 nM
koff (both partners purified): 0.000134 s⁻¹
kon (both partners purified): 143000 M⁻¹ s⁻¹
B3: humanized anti-TNF-α mAb C1 (A + a) (antibody, V domains shown)
VH: B1 VH with A64E, P65S
VL: B1 VL with S28F, I29V, L33I, Q53E, F55M, H89Q, S92H
notes: VH grafting condition a (Remicade CDRs on human germline IGHV3-15*07-JH5); heavy-chain constant region; VL grafting condition A (Remicade CDRs on human germline IGKV6-21*01-JK2); light-chain constant region; source: Expi293, transfected, purified (protein A sepharose)
